Assay: HPLC sedimentation assay of fibril thermodynamic stability
Type: physicochemical
Details: from Cr (Ka = 1/Cr), PBS pH 7.4, 25 °C

## wild-type: wild-type amyloid-β 40-residue peptide (Aβ40), made by Fmoc solid-phase synthesis
  ΔG (free energy of association): -7.2 ± 0.2 kcal/mol
